Experimental findings from article PMC5591645 are described below.

The target of the assay is phosphorylated human eIF2α (amino acids 1–185) solubility-enhanced mutant (P-eIF2α) (human) (UniProt P05198). Kind of assay: MST.

In general, Kd refers to the equilibrium constant for the complex coming apart. With “PP1^D95A (human PP1α amino acids 7–330, D95A) (from UniProt P62136 7-330) (enzyme)”, the Kd came out at 650 nM.
With “R15A–PP1^D95A (from UniProt O75807;P62136) (complex)”, the fold higher affinity than the isolated PP1^D95A was 5.4 fold.
In the case of “R15B–PP1^D95A (from UniProt Q5SWA1;P62136) (complex)”, the fold higher affinity than the isolated PP1^D95A was 3 fold.
